Results published in US20080148430.
Where a chain is given by its changes, count along the chain named.

Key:
AtPhos34 (At4g27320) = biological target: T1, AtPhos34 (At4g27320)
T1 chain: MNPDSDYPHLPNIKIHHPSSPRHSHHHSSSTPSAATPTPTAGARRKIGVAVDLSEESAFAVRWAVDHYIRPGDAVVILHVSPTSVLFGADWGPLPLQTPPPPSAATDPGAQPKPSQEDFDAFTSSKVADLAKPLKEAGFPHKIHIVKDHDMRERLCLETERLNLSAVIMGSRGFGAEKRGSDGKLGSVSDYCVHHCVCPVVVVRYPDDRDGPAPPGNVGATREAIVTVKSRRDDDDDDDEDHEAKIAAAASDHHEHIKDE

[1] = biological target: T2, Phos32 with serine S21 mutated to aspartic acid
T2 chain: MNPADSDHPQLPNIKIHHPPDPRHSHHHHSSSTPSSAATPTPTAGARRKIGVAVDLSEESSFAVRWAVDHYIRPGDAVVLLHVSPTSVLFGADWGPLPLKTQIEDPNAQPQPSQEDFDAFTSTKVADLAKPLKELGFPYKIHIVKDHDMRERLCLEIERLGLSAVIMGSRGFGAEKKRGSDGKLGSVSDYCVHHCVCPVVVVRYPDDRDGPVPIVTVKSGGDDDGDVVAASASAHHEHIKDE

[2] = biological target: T3, Phos32 with serine S21 mutated to alanine
T3 chain: T2 chain with D21A

AtPhos32 (At5g54430) = biological target: T4, AtPhos32 (At5g54430)
T4 chain: T2 chain with D21S

[3] = biological target: T5, GST fusion containing the first 46 amino acids of Phos32
T5 chain: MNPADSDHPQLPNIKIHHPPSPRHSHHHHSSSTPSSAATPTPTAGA

[4] = biological target: T6, Myelin Basic Protein (MBP) Bovine P02687
T6 chain: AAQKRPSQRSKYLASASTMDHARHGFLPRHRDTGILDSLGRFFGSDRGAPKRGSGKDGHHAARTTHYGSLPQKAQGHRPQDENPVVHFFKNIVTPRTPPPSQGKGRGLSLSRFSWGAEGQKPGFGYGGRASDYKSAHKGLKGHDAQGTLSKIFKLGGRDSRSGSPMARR

B1: AtMPK6 (protein)
chain: MDGGSGQPAADTEMTEAPGGFPAAAPSPQMPGIENIPATLSHGGRFIQYNIFGNIFEVTAKYKPPIMPIGKGAYGIVCSAMNSETNESVAIKKIANAFDNKIDAKRTLREIKLLRHMDHENIVAIRDIIPPPLRNAFNDVYIAYELMDTDLHQIIRSNQALSEEHCQYFLYQILRGLKYIHSANVLHRDLKPSNLLLNANCDLKICDFGLARVTSESDFMTEYVVTRWYRAPELLLNSSDYTAAIDVWSVGCIFMELMDRKPLFPGRDHVHQLRLLMELIGTPSEEELEFLNENAKRYIRQLPPYPRQSITDKFPTVHPLAIDLIEKMLTFDPRRRITVLDALAHPYLNSLHDISDEPECTIPFNFDFENHALSEEQMKELIYREALAFNPEYQQ
AtPhos34 (At4g27320)
  in-solution kinase assays with 32P-gammaATP: we found that these proteins are excellent MAP kinase substrates
[1]
  in vitro kinase assay: mutation of this residue to alanine or aspartic acid abolishes phosphorylation by MAPKs
[2]
  in vitro kinase assay: mutation of this residue to alanine or aspartic acid abolishes phosphorylation by MAPKs
AtPhos32 (At5g54430)
  in-solution kinase assays with 32P-gammaATP: we found that these proteins are excellent MAP kinase substrates
[3]
  in vitro kinase assay: the first 46 amino acids of Phos32 protein are sufficient for MAP kinase recognition and phosphorylation

B2: AtMPK3 (protein)
chain: MNTGGGQYTDFPAVETHGGQFISYDIFGSLFEITSKYRPPIIPIGRGAYGIVCSVLDTETNELVAMKKIANAFDNHMDAKRTLREIKLLRHLDHENIIAIRDVVPPPLRRQFSDVYISTELMDTDLHQIIRSNQSLSEEHCQYFLYQLLRGLKYIHSANIIHRDLKPSNLLLNANCDLKICDFGLARPTSENDFMTEYVVTRWYRAPELLLNSSDYTAAIDVWSVGCIFMELMNRKPLFPGKDHVHQMRLLTELLGTPTESDLGFTHNEDAKRYIRQLPNFPRQPLAKLFSHVNPMAIDLVDRMLTFDPNRRITVEQALNHQYLAKLHDPNDEPICQKPFSFEFEQQPLDEEQIKEMIYQEAIALNPTYG
AtPhos34 (At4g27320)
  in-solution kinase assays with 32P-gammaATP: we found that these proteins are excellent MAP kinase substrates
[1]
  in vitro kinase assay: mutation of this residue to alanine or aspartic acid abolishes phosphorylation by MAPKs
[2]
  in vitro kinase assay: mutation of this residue to alanine or aspartic acid abolishes phosphorylation by MAPKs
AtPhos32 (At5g54430)
  in-solution kinase assays with 32P-gammaATP: we found that these proteins are excellent MAP kinase substrates
  level of phosphorylation in an in vitro kinase assay: Phos32 is at least as good if not a better substrate than MBP for this MAP Kinase
[4]
  level of phosphorylation in an in vitro kinase assay: we used 2 µg of MBP in an in vitro kinase assay with AtMPK3 and compared the level of phosphorylation
[3]
  in vitro kinase assay: the first 46 amino acids of Phos32 protein are sufficient for MAP kinase recognition and phosphorylation
